Measurements taken from IntAct's records for PubMed 21697476.

B1: Replication and transcription activator (Epstein-Barr virus (strain B95-8) (HHV-4)), P03209 (parent)
chain: MRPKKDGLEDFLRLTPEIKKQLGSLVSDYCNVLNKEFTAGSVEITLRSYKICKAFINEAKAHGREWGGLMATLNICNFWAILRNNRVRRRAENAGNDACSIACPIVMRYVLDHLIVVTDRFFIQAPSNRVMIPATIGTAMYKLLKHSRVRAYTYSKVLGVDRAAIMASGKQVVEHLNRMEKEGLLSSKFKAFCKWVFTYPVLEEMFQTMVSSKTGHLTDDVKDVRALIKTLPRASYSSHAGQRSYVSGVLPACLLSTKSKAVETPILVSGADRMDEELMGNDGGASHTEARYSESGQFHAFTDELESLPSPTMPLKPGAQSADCGDSSSSSSDSGNSDTEQSEREEARAEAPRLRAPKSRRTSRPNRGQTPCPSNAAEPEQPWIAAVHQESDERPIFPHPSKPTFLPPVKRKKGLRDSREGMFLPKPEAGSAISDVFEGREVCQPKRIRPFHPPGSPWANRPLPASLAPTPTGPVHEPVGSLTPAPVPQPLDPAPAVTPEASHLLEDPDEETSQAVKALREMADTVIPQKEEAAICGQMDLSHPPPRGHLDELTTTLESMTEDLNLDSPLTPELNEILDTFLNDECLLHAMHISTGLSIFDTSLF

Variants of: B1
Details: with po2f1_human POU2F1, P14859
Chain of po2f1_human POU2F1, P14859 (P14859 whole entry): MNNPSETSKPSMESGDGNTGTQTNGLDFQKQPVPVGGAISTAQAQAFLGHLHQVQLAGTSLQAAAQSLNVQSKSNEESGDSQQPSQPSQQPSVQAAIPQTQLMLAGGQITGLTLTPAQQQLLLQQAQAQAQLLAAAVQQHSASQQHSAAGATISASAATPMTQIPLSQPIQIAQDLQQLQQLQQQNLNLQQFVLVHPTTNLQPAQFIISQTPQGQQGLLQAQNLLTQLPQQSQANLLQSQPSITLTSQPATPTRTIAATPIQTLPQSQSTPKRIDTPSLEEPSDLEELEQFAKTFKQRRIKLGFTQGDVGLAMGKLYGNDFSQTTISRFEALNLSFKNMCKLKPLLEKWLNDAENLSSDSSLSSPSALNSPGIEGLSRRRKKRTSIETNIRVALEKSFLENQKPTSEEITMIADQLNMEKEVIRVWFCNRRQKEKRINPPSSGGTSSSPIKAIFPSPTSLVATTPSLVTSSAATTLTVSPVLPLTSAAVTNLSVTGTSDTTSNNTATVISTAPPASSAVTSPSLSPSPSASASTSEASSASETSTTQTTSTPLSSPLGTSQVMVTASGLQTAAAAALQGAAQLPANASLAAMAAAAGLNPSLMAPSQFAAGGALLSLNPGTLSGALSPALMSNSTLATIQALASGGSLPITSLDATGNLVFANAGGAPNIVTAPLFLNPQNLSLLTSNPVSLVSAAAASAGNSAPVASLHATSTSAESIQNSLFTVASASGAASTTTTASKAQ

Variant | effect of a mutation on the interaction
M140A | decreasing interaction
